Data as given in patent US20040058369A1.

Target: αRXR co-transfected into HEK293 cells
Test: cell-based or functional assay

## Heliothis virescens ecdysone receptor (HEcR) as expressed from effector plasmid pcDNA3H3KHEcR
  induction of reporter activity in HEK293 cells co-transfected with αRXR, effector and reporter, compared to the untreated cells: 9 fold
  reporter activity with αRXR co-transfected, compared to cells transfected with effector and reporter alone: 4 fold
